Here are results for 2 molecules from US20170183415A1 (published 2017).

In one assay the target is CD123_BC. Nature of the assay: ELISA; FIG. 30B.
Another assay has as its target CD123_BD. Nature of the assay: ELISA; FIG. 30A. In general terms: An ELISA detects its analyte on a solid surface through an enzyme-linked reagent.
The next assay concerns the target CD123_DA. Nature of the assay: ELISA; FIG. 30A.
For a further assay, the target named is CD123_AC. Kind of assay: ELISA; FIG. 30A.
Another assay deals with CD123_CA. Nature of the assay: ELISA; FIG. 30A.
The target of the next assay is CD123_AD. Nature of the assay: ELISA; FIG. 30A.
The target in assay [1] is T1, immobilized CD123 (UniProt P26951 19-305).
T1 chain: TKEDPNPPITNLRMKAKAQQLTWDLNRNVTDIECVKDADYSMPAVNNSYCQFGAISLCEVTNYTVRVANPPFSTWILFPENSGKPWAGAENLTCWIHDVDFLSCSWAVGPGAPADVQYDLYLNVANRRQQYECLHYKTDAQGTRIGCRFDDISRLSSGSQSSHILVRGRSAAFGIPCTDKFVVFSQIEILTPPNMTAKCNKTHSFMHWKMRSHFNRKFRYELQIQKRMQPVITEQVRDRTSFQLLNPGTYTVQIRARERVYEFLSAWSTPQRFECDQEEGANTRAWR
Kind of assay: ELISA; FIG. 30B.

Assay [2] deals with T1, immobilized CD123. Kind of assay: ELISA; FIG. 30A.

B1: CD123 (receptor)
chain: T1 chain
By Kd is commonly meant the concentration at which binding is half-saturated. Take B1: the Kd with CD123_BC is 3.25 nM; with CD123_BD, 1.12 nM; in the assay with CD123_DA, 2.8 nM; with CD123_AC, 1.83 nM; with CD123_CA it was 10.2 nM; with CD123_AD, 1.77 nM.

B2: parent mouse scFv (anti-CD123, clone 32716) (scFv)
scFv: DIVLTQSPASLAVSLGQRATISCRASESVDNYGNTFMHWYQQKPGQPPKLLIYRASNLESGIPARFSGSGSRTDFTLTINPVEADDVATYYCQQSNEDPPTFGAGTKLELKGGGGSGGGGSSGGGSQIQLVQSGPELKKPGETVKISCKASGYIFTNYGMNWVKQAPGKSFKWMGWINTYTGESTYSADFKGRFAFSLETSASTAYLHINDLKNEDTATYFCARSGGYDPMDYWGQGTSVTVSS
Take B2: the Kd was found to be 1.04 nM in the assay with immobilized CD123 [1] and 2.56 nM with immobilized CD123 [2].
